The record followed here is patent publication US20160368974A1 (UMC UTRECHT HOLDING B V, published 2016).

Holding throughout (test): PEPSCAN-based ELISA, peptide linked to card
For experiment [1], the target named is T1, peptide ….
T1 sequence (peptide): TYSSPEDAIHELFP

Experiment [2] concerns the target T2, peptide ….
T2 sequence (peptide): TYSSPEDGAHELFP
This is another data set of the same source.

Experiment [3] deals with T3, peptide ….
T3 sequence (peptide): TYSSPEDGIHELAP
This is another data set of the same source.

The next experiment deals with T4, peptide TASSPEDGIHELFP (also: covalently linked to a PEPSCAN card).
T4 construct: also called replaced amino acid Y
T4 peptide: TASSPEDGIHELFP
As to the method:
(§1) The binding of antibody to each peptide was tested in a PEPSCAN-based ELISA. The 455-well credit card format polypropylene cars containing the covalently linked peptides were incubated with primary antibody solution consisting of 0.05 micrograms antibody/mL diluted in blocking solution, i.e., 4% horse serum, 5% ovalbumin (w/v) in PBS/0.1% Tween. After washing, the peptides were incubated with a 1/1000 dilution of antibody peroxidase conjugate for one hour at 25° C. After washing, the peroxidase substrate 2,2′-azino-di-3-ehtylbenzthiazoline sulfonate (ABTS) and 2 microliters of 3 percent H₂O₂ were added. After one hour, the colour development was measured. The colour development was quantified with a charge coupled device (CCD)-camera and an image processing system (as firstly described in Slootstra et al. Mol Divers. 1996 February; 1(2):87-96).
(§2) Peptide synthesis, screening assays and data calculation for alanine-scan of fibronectin-EDA epitope are performed as described in Example 1. Peptides based on […] were synthesized wherein in each peptide one amino acid is replaced by an alanine. The peptides were tested for binding by antibodies 27A12.70, 29E7.35, 17G8.72 and 42H11.51.

A further experiment addresses T5, peptide TYASPEDGIHELFP (also: covalently linked to a PEPSCAN card).
T5 construct: also called replaced amino acid S (first)
T5 peptide: TYASPEDGIHELFP
As for the experimental part:
as §1, §2

The next experiment has as its target T6, peptide TYSAPEDGIHELFP (also: covalently linked to a PEPSCAN card).
T6 construct: also called replaced amino acid S (second)
T6 peptide: TYSAPEDGIHELFP
As for the experimental part:
as §1, §2

The target in another experiment is T7, peptide TYSSAEDGIHELFP (also: covalently linked to a PEPSCAN card).
T7 construct: also called replaced amino acid P (first)
T7 peptide: TYSSAEDGIHELFP
As for the experimental part:
as §1, §2

A further experiment addresses T8, peptide TYSSPADGIHELFP (also: covalently linked to a PEPSCAN card).
T8 construct: also called replaced amino acid E (first)
T8 peptide: TYSSPADGIHELFP
As to the method:
as §1, §2

Another experiment addresses T9, peptide TYSSPEAGIHELFP (also: covalently linked to a PEPSCAN card).
T9 construct: also called replaced amino acid D
T9 peptide: TYSSPEAGIHELFP
As for the experimental part: as §1, §2

For a further experiment, the target named is T10, peptide TYSSPEDGIAELFP (also: covalently linked to a PEPSCAN card).
T10 construct: also called replaced amino acid H
T10 peptide: TYSSPEDGIAELFP
As to the method: as §1, §2

A further experiment concerns the target T11, peptide TYSSPEDGIHALFP (also: covalently linked to a PEPSCAN card).
T11 construct: also called replaced amino acid E (second)
T11 peptide: TYSSPEDGIHALFP
As to the method: as §1, §2

In the next experiment the target is T12, peptide TYSSPEDGIHEAFP (also: covalently linked to a PEPSCAN card).
T12 construct: also called replaced amino acid L
T12 peptide: TYSSPEDGIHEAFP
As for the experimental part:
as §1, §2

The next experiment has as its target T13, peptide TYSSPEDGIHELFA (also: covalently linked to a PEPSCAN card).
T13 construct: also called replaced amino acid P (second)
T13 peptide: TYSSPEDGIHELFA
As to the method: as §1, §2

The next experiment addresses T14, peptide TYSSPEDGIHELFP (also: covalently linked to a PEPSCAN card).
T14 construct: Synthetic peptide covalently linked to a PEPSCAN card; parent peptide of the alanine scan; also called replaced amino acid: none
T14 peptide: TYSSPEDGIHELFP
As for the experimental part: as §1, §2

For the next experiment, the target named is T15, peptide AYSSPEDGIHELFP (also: covalently linked to a PEPSCAN card).
T15 construct: also called replaced amino acid T
T15 peptide: AYSSPEDGIHELFP
As to the method:
as §1, §2

Experiment [4] addresses T16, peptide ….
T16 sequence (peptide): TYSSPEDGIHEAFP
The source holds these as a separate data set.

Residue numbers refer to the chain shown, from its start. Ends that are not written are not given here.

B1: antibody 17G8.72 (antibody, V domains shown)
VH: DVQLQESGPDLVKPSQSLSLTCTVTGYSIASGYSWHWIRQFPGNKLEWMGYIHFSGSANYNPSLKSRISITRDTSKNQFFLQLNSVTTEDTATYYCASEARGYFDYWGQGTTLTVSS
VL: DVLMTQTPLSLPVSLGDQASISCRSSQSIVRSNGNTYLTWYLQKPGQSPKLLIYKVSNRFSGVPDRFSGSGSGTDFTLKISRVEAEDLGVYFCFQGSHVPPTFGSGTKLEIKR
notes: Monoclonal antibody against the EDA domain of fibronectin-EDA; also called 17G8.7VL
Consider B1, for which the Antibody binding (arbitrary optical density units) (arbitrary optical density units) was 89 in [1], 66 in experiment [2] and 106 in [3]. The “Antibody binding (arbitrary optical density units)” value is 2670 arbitrary optical density units with peptide TASSPEDGIHELFP; 2500 arbitrary optical density units in the experiment with peptide TYASPEDGIHELFP; 2100 arbitrary optical density units with peptide TYSAPEDGIHELFP; 2090 arbitrary optical density units with peptide TYSSAEDGIHELFP; 2480 arbitrary optical density units with peptide TYSSPADGIHELFP; 2650 arbitrary optical density units with peptide TYSSPEAGIHELFP. For the same molecule, the “Antibody binding (arbitrary optical density units)” value is 2560 arbitrary optical density units with peptide TYSSPEDGIAELFP; 2100 arbitrary optical density units in the experiment with peptide TYSSPEDGIHALFP; 1550 arbitrary optical density units with peptide TYSSPEDGIHEAFP; 2160 arbitrary optical density units in the experiment with peptide TYSSPEDGIHELFA; 2090 arbitrary optical density units with peptide TYSSPEDGIHELFP; 2150 arbitrary optical density units with peptide AYSSPEDGIHELFP.

B2: antibody 27A12.70 (antibody, V domains shown)
VH: B1 VH with A30T, F54Y, S57I, Q78H, S98T, A100K, R101T, Y103F
VL: B1 VL with L3V, I29L, R31H, T39H, F94S, G96S, S97A, S105G
notes: Murine monoclonal antibody against the EDA domain of fibronectin-EDA
On to B2, for which the Antibody binding (arbitrary optical density units) (arbitrary optical density units) in experiment [1] was determined as 122; in [2], 91; in [3], 249. Further, the “Antibody binding (arbitrary optical density units)” value with peptide TASSPEDGIHELFP was 2790 arbitrary optical density units; in the experiment with peptide TYASPEDGIHELFP, 2720 arbitrary optical density units; with peptide TYSAPEDGIHELFP, 2680 arbitrary optical density units; with peptide TYSSAEDGIHELFP, 2710 arbitrary optical density units; with peptide TYSSPADGIHELFP, 2690 arbitrary optical density units; with peptide TYSSPEAGIHELFP it was 2750 arbitrary optical density units. The “Antibody binding (arbitrary optical density units)” value with peptide TYSSPEDGIAELFP is 2400 arbitrary optical density units; in the experiment with peptide TYSSPEDGIHALFP, 2200 arbitrary optical density units; in the experiment with peptide TYSSPEDGIHEAFP, 1780 arbitrary optical density units; in the experiment with peptide TYSSPEDGIHELFA, 2600 arbitrary optical density units; with peptide TYSSPEDGIHELFP it was 2680 arbitrary optical density units; with peptide AYSSPEDGIHELFP it was 2710 arbitrary optical density units.

B3: antibody 29E7.35 (antibody, V domains shown)
VH: B1 VH with D1A, Q16H, A30T, F54Y, I68F, S98T, A100K, R101T, Y103F
VL: B1 VL with L3V, I29L, R31H, T39H, F94S, G96S, S97A, S105G
notes: Monoclonal antibody against the EDA domain of fibronectin-EDA
As to B3, the Antibody binding (arbitrary optical density units) (arbitrary optical density units) stood at 81 in experiment [1], 74 in experiment [2], 194 in experiment [4] and 124 in experiment [3]. The “Antibody binding (arbitrary optical density units)” value is 2840 arbitrary optical density units with peptide TASSPEDGIHELFP; 2740 arbitrary optical density units with peptide TYASPEDGIHELFP; 2630 arbitrary optical density units with peptide TYSAPEDGIHELFP; 2660 arbitrary optical density units with peptide TYSSAEDGIHELFP; 2630 arbitrary optical density units in the experiment with peptide TYSSPADGIHELFP; 2720 arbitrary optical density units with peptide TYSSPEAGIHELFP. Further, the “Antibody binding (arbitrary optical density units)” value was 1800 arbitrary optical density units with peptide TYSSPEDGIAELFP; 302 arbitrary optical density units in the experiment with peptide TYSSPEDGIHALFP; 2600 arbitrary optical density units with peptide TYSSPEDGIHELFA; 2750 arbitrary optical density units with peptide TYSSPEDGIHELFP; 2780 arbitrary optical density units with peptide AYSSPEDGIHELFP.
